Patent US20200199214A1 (Hoffmann-La Roche, published 2020)
Numbering of substitutions follows the chain as printed. One block for each binder: values may come before it.

Key:
[1] = biological target: T1, cynomolgus IL-1 beta (Sino Biological 90010-CNAE) (cynomolgus, UniProt P79182 117-268); assay: SPR, Fab captured via anti-Fab antibody, cynomolgus IL-1beta injected, 1:1 Langmuir fit
T1 sequence (looked up): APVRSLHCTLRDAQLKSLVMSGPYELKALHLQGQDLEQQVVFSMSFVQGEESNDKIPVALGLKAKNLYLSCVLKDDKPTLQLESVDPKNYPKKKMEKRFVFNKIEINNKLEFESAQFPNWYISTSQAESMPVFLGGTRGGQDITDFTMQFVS
Protocol: (§1) An anti-Fab capturing antibody (GE Healthcare 28958325) was immobilized to a Series S Sensor Chip C1 (GE Healthcare 29104990) using standard amine coupling chemistry resulting in a surface density of approximately 500 resonance units (RU). The bispecific anti-VEGF/anti-IL-1beta Fab fragment was captured to the surface with resulting capture levels of approximately 20 RU. A dilution series ranging from 0.74 to 60 nM (1:3 dilution) of either human IL-1 beta (PeproTech 200-01B) or cynomolgus IL-1 beta (Sino Biological 90010-CNAE) was injected for 90 s, dissociation was monitored for at least 600 s at a flow rate of 30 μl/min. The surface was regenerated by two consecutive injections of 10 mM Glycine pH 2.1 for 60 s each. Bulk refractive index differences were corrected by subtracting blank injections and by subtracting the response obtained from the control flow cell without captured bispecific anti-VEGF/anti-IL-1beta Fab fragment. Curve fitting was performed using the 1:1 Langmuir binding model within the Biacore evaluation software.
(§2) Binding kinetics to VEGF and IL-1beta for the candidate antibodies were assessed as described in Example 3 using the indicated bispecific anti-VEGF/anti-IL-1beta Fab fragments (amino acid sequence as illustrated in Table 3). For comparison, antigen binding kinetics of prior art anti-VEGF/anti-IL-1beta antibody 0032, a full length IgG antibody, as disclosed in WO2016/075034 are depicted.

[2] = biological target: T2, human IL-1 beta (PeproTech 200-01B) (human, UniProt P01584 117-269); assay: SPR, Fab captured via anti-Fab antibody, human IL-1beta injected, 1:1 Langmuir fit
T2 construct: As printed it covers only the N-terminal part of the precursor, so it was not used; also called huIL-1 beta; IL1β
Protocol: as §1, §2

Human VEGF121-His [3] = biological target: T3, Human VEGF121-His (human, UniProt P15692-9 27-147); assay: SPR, VEGF121-His captured via anti-His antibody, Fab injected, single cycle kinetics, 1:1 Langmuir fit
T3 construct: not shown: His tag
T3 sequence (looked up): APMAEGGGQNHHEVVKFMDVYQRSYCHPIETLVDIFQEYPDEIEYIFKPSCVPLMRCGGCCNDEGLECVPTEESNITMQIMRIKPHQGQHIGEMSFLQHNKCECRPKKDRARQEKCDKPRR
Protocol: (§3) An anti-His capturing antibody (GE Healthcare 28995056) was immobilized to a Series S Sensor Chip C1 (GE Healthcare 29104990) using standard amine coupling chemistry resulting in a surface density of approximately 500 resonance units (RU). As running and dilution buffer, HBS-P+(10 mM HEPES, 150 mM NaCl pH 7.4, 0.05% Surfactant P20) was used. Human VEGF121-His was captured to the surface with resulting ligand densities of approximately 10 and 20 RU, respectively. A dilution series of the bispecific anti-VEGF/anti-IL-1beta Fab fragment (1.2-100 nM, 1:3 dilution) was successively injected for 90 s each, dissociation was monitored for 3600 s at a flow rate of 30 μl/min (single cycle kinetics). The surface was regenerated by injecting 10 mM Glycine pH 1.5 for 60 s. Bulk refractive index differences were corrected by subtracting blank injections and by subtracting the response obtained from the control flow cell without captured human VEGF121. Curve fitting was performed using the 1:1 Langmuir binding model within the Biacore evaluation software. To provide more robust fitting, the Multiple Rmax option was chosen for global fitting using both ligand densities.
as §2

[4] = biological target: T2, human IL-1 beta (PeproTech 200-01B); assay: SPR, Fab captured via anti-Fab antibody, human IL-1beta injected, 1:1 Langmuir fit; n = 4
Protocol: as §1
Binding kinetics to VEGF and IL-1beta for the candidate antibodies were assessed as described in Example 3 using the indicated bispecific anti-VEGF/anti-IL-1beta Fab fragments (amino acid sequence as illustrated in Table 3). […]

[5] = biological target: T2, human IL-1 beta (PeproTech 200-01B); assay: SPR, Fab captured via anti-Fab antibody, IL-1beta injected 0.74-60 nM, 1:1 Langmuir fit
Protocol: as §1, §2

human VEGF121 = biological target: T4, human VEGF121 (human, UniProt P15692-9 27-147); assay: competition ELISA: Fab preincubated with VEGF121, free VEGF121 bound to coated rhVEGFR-1-Fc detected; sheet title 'Competition ELISA VEGFR1-Fc, 8 pM VEGF121'
T4 construct: No tag is stated for these preparations; Kept apart from VEGF121-His; also called HuVEGF121
T4 sequence (looked up): T3 sequence (looked up)
Protocol: (§4) 96-well-Plates (Maxisorp Nunc-Immoplates) were coated with 50 μL/well rhVEGFR-1-Fc (R&D #321-FL-050) at a final concentration of 1 μg/ml in 200 mM NaHC0₃, pH 9.4 for 1 hour at room temperature.
(§5) Meanwhile, antibody Fab fragments of different concentrations were preincubated with VEGF for form an antibody Fab-VEGF premix as follows: A dilution series of antibody Fab fragment was prepared by adding 280 μl of a solution of antibody Fab fragments (409.6 nM antibody in PBST-1% BSA) into the wells of the first column of a round bottom 96-well PS plate. The individual wells of columns 2-12 of the same plate were filled with 140 μl PBST-1% BSA. Subsequently, 1:2 dilutions were performed by transferring 140 μl of the antibody solution into the next column, thorough mixing and proceed with transferring 140 μl of this diluted antibody solution to the next column. This is repeated until column 11. Excess of 140 μl were discarded so that all wells comprise 140 μl. Column 12 served as the control (blank). […] 50 μl of the dilution series of the respective antibody Fab fragment were added to the VEGF121, or VEGF165, respectively; mixed thoroughly and incubated for 1.5 hours at room temperature.
(§6) The rhVEGFR-1-Fc coated plates were washed two times with PBST and blocked for 45 min with 200 μl of 2% MPBST. After washing off the MPBST solution twice with PBST, 50 μl of the antibody Fab-VEGF premix were added to the plate and incubated for 1.5 hours at room temperature. Subsequently, the plates were washed twice with PBST. Then, 50 μl of a solution comprising biotinylated anti-VEGF antibody (R&D, BAF293; 1:2000 dilution in PBST) and SA-HRP (KPL, 14-30-00; 1:2000 dilution in PBST) was added and incubated for 30 min at room temperature. After 6× washing with PBST, 50 μl of TMB substrate solution (two-component HRP substrate (KPL, 34021); used at room temperature) was added and incubated for 30 min at room temperature. 50 μl of 1N H₂SO₄ was added and absorbance was read at 450 nm.

[6] = biological target: T2, human IL-1 beta (PeproTech 200-01B); assay: SPR, Fab captured via anti-Fab antibody, human IL-1beta injected, 1:1 Langmuir fit (same values as Table 1)
Protocol: as §1, §2

Human VEGF121-His [7] = biological target: T3, Human VEGF121-His; assay: SPR, VEGF121-His captured via anti-His antibody, Fab injected, single cycle kinetics, 1:1 Langmuir fit (same values as Table 1)
Protocol: as §3, §2

Human VEGF121-His [8] = biological target: T3, Human VEGF121-His; assay: SPR, VEGF121-His captured via anti-His antibody, Fab injected 1.2-100 nM, single cycle kinetics, 1:1 Langmuir fit
Protocol: as §3, §2

VEGF165 = biological target: T5, VEGF165 (UniProt P15692-4 27-191); assay: competition ELISA: Fab preincubated with VEGF165, free VEGF165 bound to coated rhVEGFR-1-Fc detected; sheet title 'Competition ELISA VEGFR1-Fc, 8 pM VEGF165'
T5 construct: also called VEGF165 (Humanzyme, HZ-1153)
Protocol: as §4, §5, §6

Kd [1]: 0.045 nM | koff [1]: 0.000118 s⁻¹ | kon [1]: 2.6e+06 M⁻¹ s⁻¹ | t½ [1]: 98 min | koff [2]: 0.000107 s⁻¹ | kon [2]: 1.66e+06 M⁻¹ s⁻¹ | Kd (Human VEGF121-His [3]): 10 pM | koff (Human VEGF121-His [3]): 1.47e-05 s⁻¹ | kon (Human VEGF121-His [3]): 1.53e+06 M⁻¹ s⁻¹ | t½ (Human VEGF121-His [3]): 789 min | Kd [4]: 0.059 nM | t 1/2 [4]: 109 min
B1: bispecific anti-VEGF/anti-IL-1beta Fab fragment 1HVL5.15 (Fab, V domains shown)
VH: DETLVESGGGLVKPGGSLRLSCAAEGMVFKWNDMSWVRQAPGKGLEWVGSISKKGDHKYLNTKFIGRFTISRDNEKDTLYLQMNSLRAEDTAVYYCAKDVGFFDIWGQGTLVTVSS
VL: AIYMHQEPSSLSASVGDRVTITCHGSYWLSSLMAWYQQKPGKAPKLLIYDAKYKHLGVPSRFSGSGSHEDYTLTISSLQPEDFATYYCQQYRYHPYTFGHGTKVEIKR

Kd [5]: 4.57 nM | koff [5]: 0.0256 s⁻¹ | kon [5]: 5.61e+06 M⁻¹ s⁻¹ | t 1/2 [5]: 0.5 min | IC50 (read off the curve) (human VEGF121): ~0.08 nM | Kd [1]: 5.79 nM | koff [1]: 0.0182 s⁻¹ | kon [1]: 3.14e+06 M⁻¹ s⁻¹ | t½ [1]: 0.6 min | Kd [6]: 4.57 nM | koff [6]: 0.0256 s⁻¹ | kon [6]: 5.61e+06 M⁻¹ s⁻¹ | t 1/2 [6]: 0.5 min | Kd (Human VEGF121-His [7]): 8 pM | koff (Human VEGF121-His [7]): 1.45e-05 s⁻¹ | kon (Human VEGF121-His [7]): 1.75e+06 M⁻¹ s⁻¹ | t½ (Human VEGF121-His [7]): 796 min | Kd (Human VEGF121-His [8]): 8 pM | koff (Human VEGF121-His [8]): 1.45e-05 s⁻¹ | kon (Human VEGF121-His [8]): 1.75e+06 M⁻¹ s⁻¹ | t 1/2 (Human VEGF121-His [8]): 796 min | IC50 (read off the curve) (VEGF165): ~0.2 nM
B2: bispecific anti-VEGF/anti-IL-1beta Fab fragment 1HVL2.3 (Fab, V domains shown)
VH: EQLVESGGGLVKPGGSLRLSCAASGMVFSWNAMSWVRQAPGKGLEWVGSISPKGDHKYLNTKFIGRFTISRDNSKNTLYLQMNSLRAEDTAVYYCAKDIGFFDVWGQGTLVTVSS
VL: B1 VL with S31N, L32Y, M33L, K52S, K54R, H55I, L56I
notes: First expressed in E. coli TG1, later in HEK293

IC50 (read off the curve) (human VEGF121): ~0.04 nM | Kd [1]: 0.02 nM | koff [1]: 6.54e-05 s⁻¹ | kon [1]: 3.34e+06 M⁻¹ s⁻¹ | t½ [1]: 177 min | Kd [2]: 0.028 nM | koff [2]: 0.000135 s⁻¹ | kon [2]: 4.76e+06 M⁻¹ s⁻¹ | t 1/2 [2]: 86 min | Kd (Human VEGF121-His [3]): 6 pM | koff (Human VEGF121-His [3]): 1.51e-05 s⁻¹ | kon (Human VEGF121-His [3]): 2.5e+06 M⁻¹ s⁻¹ | t½ (Human VEGF121-His [3]): 764 min | IC50 (read off the curve) (VEGF165): ~0.09 nM
B3: bispecific anti-VEGF/anti-IL-1beta Fab fragment 1HVL12.85 (Fab, V domains shown)
VH: B1 VH with T3Q
VL: B1 VL with M33V, G66K, S67E, H68D, E69Q, D70E, Y71F
